According to patent US20220144940A1 (VIELA BIO, published 2022):
“And” between values parts separate entries of the source, which are not always exact repeats. Equal values may be shown once. Each block holds one binder with its values, some of them ahead of it.

Key:
cynomolgus ILT7 [1] = biological target: T1, cynomolgus ILT7 (cynomolgus, UniProt P59901 24-499 (human entry)); assay: FACS on CHO cells expressing recombinant cyno ILT7; reference antibody of the comparison
T1 construct: also called cyno ILT7; cynomolgus monkey ILT7
T1 sequence (P59901 other isoform, or with tags, fused parts or gaps limits assumed): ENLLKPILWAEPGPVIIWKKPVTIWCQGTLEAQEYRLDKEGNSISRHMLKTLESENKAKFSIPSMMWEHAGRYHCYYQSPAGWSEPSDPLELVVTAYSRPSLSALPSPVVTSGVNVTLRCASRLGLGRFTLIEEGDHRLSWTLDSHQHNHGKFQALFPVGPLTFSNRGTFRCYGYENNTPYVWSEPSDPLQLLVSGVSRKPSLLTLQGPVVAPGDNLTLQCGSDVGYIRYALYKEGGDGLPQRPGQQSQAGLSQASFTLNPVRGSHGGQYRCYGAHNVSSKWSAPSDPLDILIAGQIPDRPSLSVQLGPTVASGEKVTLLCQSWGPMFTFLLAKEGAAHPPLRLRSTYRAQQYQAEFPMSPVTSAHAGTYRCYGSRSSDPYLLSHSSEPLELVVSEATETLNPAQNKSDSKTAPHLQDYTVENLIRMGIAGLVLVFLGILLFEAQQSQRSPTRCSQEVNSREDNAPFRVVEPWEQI

human ILT7 [2] = biological target: T2, human ILT7 (human, UniProt P59901 24-499); assay: FACS on CHO cells expressing recombinant human ILT7; reference antibody of the comparison
T2 construct: whole, on cells; also called LIRA4; LILRA4
T2 sequence (P59901 24-499): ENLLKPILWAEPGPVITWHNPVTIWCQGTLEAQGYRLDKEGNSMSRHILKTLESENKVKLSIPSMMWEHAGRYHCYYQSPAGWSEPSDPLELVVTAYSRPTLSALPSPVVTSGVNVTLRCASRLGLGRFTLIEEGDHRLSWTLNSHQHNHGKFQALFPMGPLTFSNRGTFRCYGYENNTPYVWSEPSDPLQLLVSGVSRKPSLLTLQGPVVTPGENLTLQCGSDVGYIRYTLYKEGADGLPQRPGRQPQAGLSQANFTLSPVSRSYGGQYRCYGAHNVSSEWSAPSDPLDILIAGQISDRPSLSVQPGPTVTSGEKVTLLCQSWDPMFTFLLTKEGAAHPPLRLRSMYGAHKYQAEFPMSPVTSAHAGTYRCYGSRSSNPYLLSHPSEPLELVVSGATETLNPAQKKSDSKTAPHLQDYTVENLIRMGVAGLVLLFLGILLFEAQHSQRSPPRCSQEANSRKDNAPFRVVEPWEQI

cynomolgus ILT7 [3] = biological target: T1, cynomolgus ILT7; assay: flow cytometry on cells expressing cynomolgus ILT7 (CT-125 cells)
Procedure: (§1) Binding of anti-ILT7 variants and isotype controls on human and cynomolgus ILT7 was assessed by flow cytometry analysis using CT-550 and cynoILT7 CT-125 cells respectively. CT-125 cells were used as control. Cells were resuspended in Blocking Buffer (PBS supplemented with 10% FBS) at a concentration of 5 million cells per mL and transferred into a round-bottom 96-well plates (BD Falcon™ Clear Microtest Plate, BD Biosciences) at 100 μL per well. Anti-ILT7 variants and control antibodies were added onto the cells for 30 min at 4° C. on a plate shaker. Cells were washed three times with PBS and resuspended in Blocking Buffer (100 μL/well). Human IgG binding on cell surface was detected using a secondary anti-human IgG antibody conjugated to DyLight 649 (1 in 1000 dilution). Cells were incubated in the dark for 30 min at 4° C. on a plate shaker. Cells were washed three times with PBS and surface fluorescence was acquired using LSRII Flow Cytometry System and FACSDiva Software (both from BD Biosciences).
The resultant IgG1s were tested to confirm that the sequence changes incorporated into ILT70080 and ILT70083 and had not adversely impacted the binding of the parent antibody to cells expressing human ILT7 (CT-550 cells) or cynomolgus ILT7 (CT-125 cells). The variants were screened for binding by flow cytometry. […]

cynomolgus ILT7 [4] = biological target: T1, cynomolgus ILT7; assay: flow cytometry on CynoILT7 CT-125 cells
Procedure: as §1
(§2) In order to determine the binding EC₅₀ of the variants on cells expressing cynomolgus ILT7, the antibodies were screened for binding on CynoILT7 CT-125 cells by flow cytometry. […] The graph in FIG. 3 represents the mean results from two independent experiments, and the table in FIG. 3 show the average EC₅₀.

[5] = biological target: T3, HA-tagged human ILT7 on CT-550 cells (human, UniProt P59901 24-499); assay: flow cytometry on human ILT7-expressing cells, left panel 'Human ILT7', table 'Ec50 (nM)'
T3 construct: whole, on cells; CT-550 cells: CT-125 cells (2B4 murine T-cell hybridoma with mouse FcεRIγ and NFAT-GFP reporter) transduced with HA-tagged human ILT7; also called human ILT7-expressing cells; not shown: HA tag
T3 sequence (P59901 24-499): as above
Procedure: as §1

cynomolgus ILT7 [6] = biological target: T1, cynomolgus ILT7; assay: flow cytometry on cynomolgus ILT7-expressing cells, right panel 'Cyno ILT7', table 'Ec50 (nM)'
Procedure: as §1

cynomolgus ILT7 [7] = biological target: T1, cynomolgus ILT7; assay: cell-based or functional assay
[8] = biological target: T3, HA-tagged human ILT7 on CT-550 cells; assay: cell-based or functional assay
[9] = biological target: T3, HA-tagged human ILT7 on CT-550 cells; assay: flow cytometry on CT-550 cells
Procedure: as §1
(§3) In order to determine the binding EC50 of ILT70019, ILT70028, ILT70052, ILT70076, ILT70080, ILT70083, ILT70089, ILT70100, ILT70137, ILT70142 and ILT70144 on cells expressing human ILT7, the candidates were screened for binding on CT-550 cells by flow cytometry. ILT70080 (EC₅₀=0.28 nM), ILT70083 (EC₅₀=0.37 nM), ILT70137 (EC₅₀=0.41 nM), ILT70144, ILT70142, ILT70052, and ILT70100 bound to human ILT7-expressing cells. […] The anti-ILT7 antibodies 7C7 (7C7 is described above in Example 1) and SBI33 (SBI33 refers to the anti-ILT7 antibody ILT7#33 provided in U.S. Published Application No. 2009/0280128) were used as positive controls.

cynomolgus ILT7 [10] = biological target: T1, cynomolgus ILT7; assay: flow cytometry on CynoILT7 CT-125 cells expressing cynomolgus ILT7, anti-human IgG DyLight 649 detection; table 'Mean Ec50 (nM)', n = 2
Procedure: as §1, §2

[11] = biological target: T4, recombinant human ILT7 protein (human, UniProt P59901 24-446, limits assumed); assay: SPR on ProteOn, purified IgG on rILT7
T4 construct: Soluble recombinant protein used in ProteOn and BIAcore SPR; also called rILT7; Soluble Recombinant Human ILT7
T4 sequence (P59901 24-446 limits assumed): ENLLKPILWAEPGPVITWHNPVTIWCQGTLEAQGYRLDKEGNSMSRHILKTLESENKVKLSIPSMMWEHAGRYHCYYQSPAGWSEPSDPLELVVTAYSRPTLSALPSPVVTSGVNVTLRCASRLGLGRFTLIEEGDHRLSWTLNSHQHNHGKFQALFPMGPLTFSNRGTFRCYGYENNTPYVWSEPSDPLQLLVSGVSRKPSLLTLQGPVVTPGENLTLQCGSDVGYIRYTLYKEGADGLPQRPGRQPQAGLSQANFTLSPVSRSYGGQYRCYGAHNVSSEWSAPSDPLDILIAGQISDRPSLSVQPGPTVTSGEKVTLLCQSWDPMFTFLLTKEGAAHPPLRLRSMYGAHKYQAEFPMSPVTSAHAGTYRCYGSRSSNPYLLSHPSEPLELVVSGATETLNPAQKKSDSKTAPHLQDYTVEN

cynomolgus ILT7 [12] = biological target: T1, cynomolgus ILT7; assay: FACS on CHO cells expressing recombinant cyno ILT7
[13] = biological target: T3, HA-tagged human ILT7 on CT-550 cells; assay: flow cytometry on CT-550 cells expressing human ILT7, anti-human IgG DyLight 649 detection; table 'Mean Ec50 (nM)', n = 2
Procedure: as §1, §3

human ILT7 [14] = biological target: T2, human ILT7; assay: FACS on CHO cells expressing recombinant human ILT7
[15] = biological target: T3, HA-tagged human ILT7 on CT-550 cells; assay: flow cytometry on CT-550 cells expressing human ILT7, anti-human IgG DyLight 649 detection; mean of two experiments
Procedure: as §1
In order to determine the binding EC50 of ILT70019, ILT70028, ILT70052, ILT70076, ILT70080, ILT70083, ILT70089, ILT70100, ILT70137, ILT70142 and ILT70144 on cells expressing human ILT7, the candidates were screened for binding on CT-550 cells by flow cytometry. […]

human ILT7 [16] = biological target: T2, human ILT7; assay: FMAT cell binding assay, CHO-K1 cells expressing human ILT7, IgG
Source text: (§4) This homogeneous assay assessed the binding of crude scFv supernatant samples or purified IgG to Chinese Hamster Ovary (CHO) cells expressing either human or cynomolgus ILT7 in a 384-well (Costar 3655) format. ScFv or Ab binding to cells was detected using a mouse anti-His/goat anti-mouse Alexafluor®-647 labelled antibody (Molecular Probes A21236) mix, or goat anti-human Alexafluor®-647 labelled antibody (Molecular Probes A21445) respectively. Plates were read on the Applied Biosystems Cellular Detection system 8200 reader. The Helium neon excitation laser was focused within 100 μm depth of the bottom of the well, scanning an area 1 mm². The cells settled at the bottom of the well, and upon laser excitation at 633 nm, those beads with fluorophore bound (where the local concentration of fluorophore is relatively high compared to unbound fluorophore) emitted a signal at 650-685 nm that was measured using photomultiplier tube-1 (PMT1). […] The presence of scFv or IgG samples binding to the cells at the bottom of the well caused an increase in Alexafluor-labeled detection antibody within the excitation depth. This was measured as an increase in fluorescence.
(§5) The cells used were CHO-Kl cells expressing either human or cynomolgus ILT7 that were cultured using standard tissue culture techniques. […]
(§6) Species cross-reactivity of anti-ILT7 antibodies was determined using FMAT binding assay. […]

cynomolgus ILT7 [17] = biological target: T1, cynomolgus ILT7; assay: FMAT cell binding assay, CHO-K1 cells expressing cynomolgus ILT7, IgG
Source text: as §4, §5, §6

binding result (cynomolgus ILT7 [1]): binds | binding result (human ILT7 [2]): binds
B1: SBI28ch (antibody, V domains shown)
VH: QVQLQQSGAELVKPGASVKMSCKAFGYTFTTYPIEWMKQNHGKSLEWIGNFHPYNDDTKYNEKFKGKAKLTVEKSSSTVYLELSRLTSDDSAVYYCARGDDYGMDYWGQGTSVTVSS
VL: DIVMTQSQKFMSTSVGDRVSITCKASQNVRTAVAWYQQKPGQSPKALIYLASNRHTGVPDRFTGSGSGTDFTLTISNVQSEDLADYFCLQHWNYPFTFGSGTKLEIK
notes: also called chimeric SBI28; ILT7#28

EC50 (cynomolgus ILT7 [3]): 0.547 nM | EC50 (cynomolgus ILT7 [4]): 0.44 nM | EC50 [5]: 0.3 nM | EC50 (cynomolgus ILT7 [6]): 0.41 nM | ADCC EC50 (cynomolgus ILT7 [7]): 0.008 nM and 0.006 nM | ADCC EC50 [8]: 0.022 nM and 0.013 nM | EC50 [9]: 0.28 nM and 0.213 nM
B2: ILT70080 (antibody, V domains shown)
VH: QVQLVQSGAEVKAPGTSVKVSCKASGDSFRNYAVSWVRQAPGQGLEWMGAMMPSFGTREHSQQFNGRVTLSADESTSTAYLELSSLRYDDTAVYYCAGSRDYNAYHFWTGPPDFWGRGTLVTVSS
VL: SYELTQPPSVSVAPGKTAKISCGGDSVGSTSVHWYQQKPGQAPVMVMFYNSDRPSGIPERFSGSISGNTATLTISRVEAGDEADYYCQVWDTSSDHPEFGGGTKLTVL
notes: also called ITL70080

EC50 (cynomolgus ILT7 [10]): 8.34 nM | fold KD improvement over SBI28ch [11]: ~60 fold | fold better EC50 than SBI28ch (cynomolgus ILT7 [12]): 14 fold | EC50 [13]: 1.3 nM | fold better EC50 than SBI28ch (human ILT7 [14]): 2.2 fold
B3: 7C7 (antibody, V domains shown)
VH: EVQLVESGGGVVQPGRSLRLSCAASGFTFSIYPIEWVRQAPGQGLEWIGNFHPYNDDTKYNEKFKGRVTMTTDTSTSTVYMELSSLRSEDTAVYYCTRGDDYGLDYWGQGTLVTVSS
VL: NIQMTQSPSSLSASVGDRVTITCDASQNVRTAVAWYQQKPGKAPKRLIYLASNRHTGVPSRFSGSGSGTDFTLTISSLQSEDFATYYCLQHWNYPFTFGPGTKLEIK
notes: also called anti-ILT7 clone 7C7

binding result [15]: binds | binding result (human ILT7 [16]): binds | binding result (cynomolgus ILT7 [17]): binds
B4: ILT70089 (antibody, V domains shown)
VH: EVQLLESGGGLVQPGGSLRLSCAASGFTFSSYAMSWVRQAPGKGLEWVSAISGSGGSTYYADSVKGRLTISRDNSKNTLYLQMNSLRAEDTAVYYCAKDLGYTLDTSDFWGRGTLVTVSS
VL: SYVLTQPPSASGSPGQGVTISCSGSSSNIGTNTVNWYLHVPGTAPKLLTYTNNQRPSGVQDRFSGSKSDTSASLAISGLQAEDEGDYYCATWDDSLNGLAFGGGTKLTVL
